# Earlier results in article PMC5576430.
# Read-outs that look alike come from different tables or passages of the source.
# Experiments:
# [1] = biological target: p300 CH1 (Homo sapiens) (UniProt Q09472); assay: tryptophan fluorescence
# [2] = biological target: p300 CH1 (Homo sapiens) (UniProt Q09472)
# [3] = biological target: HIF-1α (Homo sapiens) (UniProt Q16665)
# UniProt Q09472, sequence (Q09472 331-417): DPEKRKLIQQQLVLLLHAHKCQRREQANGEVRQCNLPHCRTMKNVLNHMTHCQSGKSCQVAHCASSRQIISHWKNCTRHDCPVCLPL
substance,measurement,setting,value
HIF-1α helix 3 unconstrained peptide helix 3 (from UniProt Q16665),Kd,[1],6060 nM
HIF-1α C-TAD helix 2 peptide,Kd,[2],825 nM
cyclo-CLLFVY,Kd,[3],124 nM
